In the supplement of paper PMC7125110:
± gives the standard error. For part of these data: Fewer inactive variants are shown than the library holds.

B1: glmS ribozyme (parent)
chain: AUAAAAGCGCCAGAACUACAGAAAUGUAGUUGACGAGGAGGAGGUUUAUCGAAUUUUCGGCGGAUGCCUCCAAA

What was measured:
Details in all cases: with glucosamine-6-phosphate
[1] = variants of: B1; assay: kcat; higher = faster cleavage; RNA array
Procedure, shortened: (§1)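 Barcoded ribozyme variants on sequenced MiSeq chips were transcribed in situ by E. coli RNA polymerase and followed at 37 °C through a hybridised Cy3 probe. Glucosamine-6-phosphate at 40 μM to 10 mM in HEPES/KCl/Mg(OAc)2 buffer was flowed in, and tiles were imaged over ~14 h. Signals were normalised to baseline and to non-cleaving reference variants, and per-tile medians were fit to one- or two-exponential decays to give kobs. Weighted Michaelis–Menten fits across concentrations gave kcat and KM.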

[2] = variants of: B1; assay: self-cleavage kobs at 40 uM GlcN6P; higher = faster cleavage; RNA array
Procedure, shortened: as §1

[3] = variants of: B1; assay: self-cleavage kobs at 160 uM GlcN6P; higher = faster cleavage; RNA array
Procedure, shortened: as §1

[4] = variants of: B1; assay: self-cleavage kobs at 2500 uM GlcN6P; higher = faster cleavage; RNA array
Procedure, shortened: as §1

[5] = variants of: B1; assay: self-cleavage kobs at 10000 uM GlcN6P; higher = faster cleavage; RNA array
Procedure, shortened: as §1

[6] = variants of: B1; assay: KM; higher = weaker cofactor use; RNA array
Procedure, shortened: as §1

[7] = variants of: B1; assay: self-cleavage kobs at 640 uM GlcN6P; higher = faster cleavage; RNA array
Procedure, shortened: as §1

## A15C U31G
[1]
  kcat: 0.00453 ± 0.0018 s⁻¹
[2]
  self-cleavage kobs at 40 uM GlcN6P: 8.5e-05 ± 3.2e-05 s⁻¹
[3]
  self-cleavage kobs at 160 uM GlcN6P: 0.000187 ± 5.2e-05 s⁻¹
[4]
  self-cleavage kobs at 2500 uM GlcN6P: 0.00159 ± 0.00063 s⁻¹
[5]
  self-cleavage kobs at 10000 uM GlcN6P: 0.00376 ± 0.0012 s⁻¹

## A12G A15G
[1]
  kcat: 0.000505 ± 0.00012 s⁻¹
[6]
  KM: 4550 ± 1800 µM
[3]
  self-cleavage kobs at 160 uM GlcN6P: 2.24e-05 ± 1e-05 s⁻¹
[7]
  self-cleavage kobs at 640 uM GlcN6P: 7.71e-05 ± 9.2e-06 s⁻¹
[4]
  self-cleavage kobs at 2500 uM GlcN6P: 0.000155 ± 1.5e-05 s⁻¹
[5]
  self-cleavage kobs at 10000 uM GlcN6P: 0.000371 ± 3.2e-05 s⁻¹

## G40U U45G
[1]
  kcat: 0.0012 ± 0.00018 s⁻¹
[6]
  KM: 724 ± 190 µM
[2]
  self-cleavage kobs at 40 uM GlcN6P: 7.67e-05 ± 2e-05 s⁻¹
[3]
  self-cleavage kobs at 160 uM GlcN6P: 0.000202 ± 3.6e-05 s⁻¹
[7]
  self-cleavage kobs at 640 uM GlcN6P: 0.000582 ± 8.9e-05 s⁻¹
[4]
  self-cleavage kobs at 2500 uM GlcN6P: 0.000779 ± 0.00017 s⁻¹
[5]
  self-cleavage kobs at 10000 uM GlcN6P: 0.00134 ± 0.00027 s⁻¹

## G13A G40C
[1]
  kcat: 5.83e-05 ± 8.4e-06 s⁻¹
[6]
  KM: 2940 ± 1100 µM
[2]
  self-cleavage kobs at 40 uM GlcN6P: < 1e-05 s⁻¹
[4]
  self-cleavage kobs at 2500 uM GlcN6P: 2.55e-05 ± 7.4e-06 s⁻¹
[5]
  self-cleavage kobs at 10000 uM GlcN6P: 4.56e-05 ± 9.9e-06 s⁻¹

## C10U U31A
[1]
  kcat: 2.74e-05 ± 1e-06 s⁻¹
[6]
  KM: 5120 ± 380 µM

## A14G G44A
[1]
  kcat: 0.00146 ± 0.00055 s⁻¹
[2]
  self-cleavage kobs at 40 uM GlcN6P: 2.21e-05 ± 9.5e-06 s⁻¹
[3]
  self-cleavage kobs at 160 uM GlcN6P: 4.23e-05 ± 1.4e-05 s⁻¹
[7]
  self-cleavage kobs at 640 uM GlcN6P: 0.000664 ± 0.00018 s⁻¹
[4]
  self-cleavage kobs at 2500 uM GlcN6P: 0.00104 ± 0.00021 s⁻¹
[5]
  self-cleavage kobs at 10000 uM GlcN6P: 0.00102 ± 0.00013 s⁻¹

## A6U C58U C70G
[1]
  kcat: 1.51e-05 ± 4.3e-06 s⁻¹

## G37C C50A C58A U69A
[1]
  kcat: 5.12e-05 ± 2.4e-05 s⁻¹
[7]
  self-cleavage kobs at 640 uM GlcN6P: 8.62e-05 ± 3.4e-05 s⁻¹

## G32C U47G
[1]
  kcat: 1.21e-05 ± 1.1e-07 s⁻¹
[6]
  KM: 403 ± 39 µM
